# From patent publication US8030048B2, “Enantioselective epoxide hydlrolase and method for preparing and enantiopure epoxide using the same” (Korea Ocean Research and Development Institute, priority 2005, dated 2011)
# B1: Rhodobacterium sp. HTCC2654 epoxide hydrolase rEEH (RH), SEQ ID NO: 32 (Maritimibacter alkaliphilus HTCC2654) (protein)
# chain: MNDKTFIETNGIRLATRIEGDGPLVILVHGFPETAYSWRKQASPLVEAGYRVCIPDVRGYGNSDAPEAVSAYAMEVMTRDFLGLAQALSEVPAVIVGHDWGAPLAWNTARLFPEQFRAVAGLSVPYAPPGDVAPIDLYHKLFTDKGRFFYQVYFQDEGVAEAELEADVEDSLAKFYYAWSGDCPPNGWPNDKAHGDPVLKGLPRPDLPLPWLTQDDLDRYAADFRTSGFRGPLNRYRNQREDHAFLKAHPSNPIIQQPSLFLYGDRDPVLTMFRTPPEDLLPKTLADLRGVHRLPGVGHWTQQEAPEAVNKALIDWLATL
# notes: soluble-EH-like alpha/beta hydrolase
# B2: Sphingopyxis alaskensis epoxide hydrolase sEEH (Sp), SEQ ID NO: 28 (Sphingopyxis alaskensis RB2256) (protein)
# chain: SSAGPSTAITVSAAAAVAAPQDESIRPFHVSIPEEALTDLRRRLAETRWPDREKVSDASQGVQLDRLEPLVRYWGTDYDWRKGEARLNAVPQFITTIDGLDIQFIHIRSKHKGAMPLLMTHGWPGSPFELLKTVGPLTDPTAHGGKAEDAFDLIMPTYPGYGFSGKPNEAWDPARVARAWDVLMKRLGYKNYVSQGGDWGAIISQVLAVQAPEGLLGIHTNMPGTVPPGVLKLVRAKQPAPDSYSPEEKIAYAGLETFYGKGFGYAEMMNTRPQTLGYGLSDSPVGLAAFLYEKIATWTDSGGNPESVLTRDEILDNITLYWLTNTGTSSSRSYWDAAQGPGGPFNAIEISKVPVAVTVFPGEIYRAPRSWGEKSFKKLIYWNEVDKGGHFAAWEQPELFAAEIRAAFRPLREKK
# B3: sEEH: 49 kDa epoxide hydrolase purified from Sphingopyxis alaskensis, SEQ ID NO: 28 (protein, listed as Erythrobacter litoralis)
# chain: MSPAKSISLRRLLSTAISVAALGMTLQSSPSFASSAGPSTAITVSAAAAVAAPQDESIRPFHVSIPEEALTDLRRRLAETRWPDREKVSDASQGVQLDRLEPLVRYWGTDYDWRKGEARLNAVPQFITTIDGLDIQFIHIRSKHKGAMPLLMTHGWPGSPFELLKTVGPLTDPTAHGGKAEDAFDLIMPTYPGYGFSGKPNEAWDPARVARAWDVLMKRLGYKNYVSQGGDWGAIISQVLAVQAPEGLLGIHTNMPGTVPPGVLKLVRAKQPAPDSYSPEEKIAYAGLETFYGKGFGYAEMMNTRPQTLGYGLSDSPVGLAAFLYEKIATWTDSGGNPESVLTRDEILDNITLYWLTNTGTSSSRSYWDAAQGPGGPFNAIEISKVPVAVTVFPGEIYRAPRSWGEKSFKKLIYWNEVDKGGHFAAWEQPELFAAEIRAAFRPLREKK
# Assays:
# [1] = Enantioselective hydrolyzing activity of purified EHases toward SO; format: biochemical; conditions: purified enzyme
# Description: (§1) Kinetic parameters of the rEEH1, rEEH2, rEEH3, sEEH, nEEH, and rEEH were determined by a GC analysis using (R)- or (S)- styrene oxide substrate. 100 ul of purified EHases were mixed with various concentrations of (R)- or (S)- styrene oxide in a 10 ml tube containing 1 ml of potassium phosphate buffer (100 mM, pH 8.0), and shake-incubated at 200 rpm and a temperature of 30° C. The extraction mixtures were extracted with 2 ml of hexane, and enantiomeric excess [ee; ee=100×(S−R)/(S+R)] toward enantiopure styrene oxide was analyzed with a chiraldex gamma-cyclodextrin trifluoroacetyl(G-TA) capillary GC column. Wherein, the FIG. 8 was diagramed with GC analysis for the hydrolyzing activities of enantioselective EHases (rEEH1, rEEH2, and rEEH3) toward racemic styrene oxide.
# (§2) Kinetic parameters were estimated by non-linear regression analysis using a Sigma Plot program, and various substrates as depicted in FIG. 1 were also tested for the enantioselective hydrolyzing activity by rEEH1, rEEH2, rEEH3, sEEH, nEEH, and rEEH.
# [2] = Optimum activity conditions of sEEH, nEEH and rEEH; format: biochemical
# Description: After cloning the genes into pET-24a (+) expression vector, the vector was introduced into BL21-CondonPlus(DE3)-RP (Novagen), and then separated by SDS-PAGE. […] Also, the optimum activities of sEEH, nEEH, and rEEH occurred at neutral pH and mesophilic conditions (30 to 40° C.).
# [3] = substrate: c1ccc([C@@H]2CO2)cc1; test: Kinetic parameters of purified rEEH by GC analysis with (R)- or (S)-styrene oxide; format: biochemical, Rhodobacterium sp. HTCC2654; conditions: other: 100 mM potassium phosphate pH 8.0, 30° C.
# Description: as §1, §2
# [4] = substrate: c1ccc([C@H]2CO2)cc1; test: as above; format: biochemical, Rhodobacterium sp. HTCC2654; conditions: other: 100 mM potassium phosphate pH 8.0, 30° C.
# Description: as §1, §2
# [5] = substrate: c1ccc([C@@H]2CO2)cc1; test: Kinetic parameters of purified sEEH by GC analysis with (R)- or (S)-styrene oxide; format: biochemical, Sphingopyxis alaskensis; conditions: other: 100 mM potassium phosphate pH 8.0, 30° C.
# Description: as §1, §2
# [6] = substrate: c1ccc([C@H]2CO2)cc1; test: as above; format: biochemical, Sphingopyxis alaskensis; conditions: other: 100 mM potassium phosphate pH 8.0, 30° C.
# Description: as §1, §2
Molecule,"enantiomer preference in hydrolysis of styrene oxide, in words [1]",optimum temperature [2],Km [3] [mM],Vmax [3] [µmol/min/mg],kcat [3] [s⁻¹],kcat/Km [3] [M⁻¹ s⁻¹],Km [4] [mM],Vmax [4] [µmol/min/mg],kcat [4] [s⁻¹],kcat/Km [4] [M⁻¹ s⁻¹],Km [5] [mM],Vmax [5] [µmol/min/mg],kcat [5] [s⁻¹],kcat/Km [5] [M⁻¹ s⁻¹],Km [6] [mM],Vmax [6] [µmol/min/mg],kcat [6] [s⁻¹],kcat/Km [6] [M⁻¹ s⁻¹],optimum pH [2]
B1,hydrolyzed (R)-enantiopure styrene oxide,30-40 °C,5.2 ± 0.3,54.1,32,6160,4.1 ± 0.3,11.3,6.7,1630,–,–,–,–,–,–,–,–,–
B2,–,–,–,–,–,–,–,–,–,–,4 ± 0.3,8.9,7.42,1860,5.25 ± 0.3,12.1,10.1,1920,–
B3,not enantioselective,–,–,–,–,–,–,–,–,–,–,–,–,–,–,–,–,–,neutral pH
